From US12269859B2, “Synthetic immune receptors and methods of use thereof” (Angeles Therapeutics, Inc., priority 2016, dated 2025)

B1: 042916-B04 (protein)
chain: MALPVTALLLPLALLLHAARPLEGKPIPNPLLGLDSTGSGEDLKNVFPPEVAVFEPSKAEIAHTQKATLVCLATGFYPDHVELSWWVNGKEVHSGVCTDPQPLKEQPALNDSRYCLSSRLRVSATFWQNPRNHFRCQVQFYGLSENDEWTQDRAKPVTQIVSAEAWGRADCGITSASYHQGVLSATILYEILLGKATLYAVLVSALVLMAMVKRKDSRGRAKRSGSGATNFSLLKQAGDVEENPGPTSTMALPVTALLLPLALLLHAARPDIQMTQSPSSLSASVGDRVTITCTASLSVSSTYLHWYQQKPGSSPKLWIYSTSNLASGVPSRFSGSGSGTSYTLTISSLQPEDFATYYCHQYHRSPLTFGGGTKVEIKRGGGGSGGGGSGGGGSEVQLVESGGGLVQPGGSLRLSCAASGFSLTKYGVHWVRQAPGKGLEWVGVKWAGGSTDYNSALMSRFTISKDNAKNSLYLQMNSLRAEDTAVYYCARDHRDAMDYWGQGTLVTVSSTREQKLISEEDGSGIQNPDPAVYQLRDSKSSDKSVCLFTDFDSQTNVSQSKDSDVYITDKCVLDMRSMDFKSNSAVAWSNKSDFACANAFNNSIIPEDTFFPSSDVPCDVKLVEKSFETDTNLNFQNLSVIGFRILLLKVAGFNLLMTLRLWSSRAKRSGSGVKQTLNFDLLKLAGDVESNPGPSRGHMTEYKPTVRLATRDDVPRAVRTLAAAFADYPATRHTVDPDRHIERVTELQELFLTRVGLDIGKVWVADDGAAVAVWTTPESVEAGAVFAEIGPRMAELSGSRLAAQQQMEGLLAPHRPKEPAWFLATVGVSPDHQGKGLGSAVVLPGVEAAERAGVPAFLETSAPRNLPFYERLGFTVTADVEVPEGPRTWCMTRKPGA
modifications: Synthetic Immune Receptor (SIR)
B2: 090116-J01 (protein)
chain: MALPVTALLLPLALLLHAARPLEGKPIPNPLLGLDSTGSGEDLKNVFPPEVAVFEPSKAEIAHTQKATLVCLATGFYPDHVELSWWVNGKEVHSGVCTDPQPLKEQPALNDSRYCLSSRLRVSATFWQNPRNHFRCQVQFYGLSENDEWTQDRAKPVTQIVSAEAWGRADCGITSASYHQGVLSATILYEILLGKATLYAVLVSALVLMAMVKRKDSRGRAKRSGSGATNFSLLKQAGDVEENPGPTSMALPVTALLLPLALLLHAARPDIQMTQSPASLSASVGETVTIICRASVNIYSYLAWYQQKQGKSPQLLVYNAKILAEGVPSRFSGSGSGTQFSLKINSLQPEDFGSYYCQHHYGTFTFGSGTKLEIKRGGGGSGGGGSGGGGSQVQLKESGPGLVAPSQSLSITCTISGFSLTSYGVHWVRQPPGKGLEWLVVIWSDGSTTYNSALKSRLSISKDNSKSQVFLKMNSLQTDDTAIYYCASHYGSTLAFASWGHGTLVTVSAATREQKLISEEDGSGIQNPDPAVYQLRDSKSSDKSVCLFTDFDSQTNVSQSKDSDVYITDKCVLDMRSMDFKSNSAVAWSNKSDFACANAFNNSIIPEDTFFPSSDVPCDVKLVEKSFETDTNLNFQNLSVIGFRILLLKVAGFNLLMTLRLWSSRAKRSGSGVKQTLNFDLLKLAGDVESNPGPSRGHMTEYKPTVRLATRDDVPRAVRTLAAAFADYPATRHTVDPDRHIERVTELQELFLTRVGLDIGKVWVADDGAAVAVWTTPESVEAGAVFAEIGPRMAELSGSRLAAQQQMEGLLAPHRPKEPAWFLATVGVSPDHQGKGLGSAVVLPGVEAAERAGVPAFLETSAPRNLPFYERLGFTVTADVEVPEGPRTWCMTRKPGA
modifications: Synthetic Immune Receptor (SIR)
B3: 041416-N03 (protein)
chain: MALPVTALLLPLALLLHAARPDIVMTQSHKFMSTSVGDRVSVTCKASQNVGNNVAWYQQKPGQSPKVLIYSASYRYSGVPDRFTGSGSGTDFTLTISNVQSEDLAEYFCQQYNTYPFTFGSGTKLEIKLEGKPIPNPLLGLDSTGSGEDLKNVFPPEVAVFEPSKAEIAHTQKATLVCLATGFYPDHVELSWWVNGKEVHSGVCTDPQPLKEQPALNDSRYCLSSRLRVSATFWQNPRNHFRCQVQFYGLSENDEWTQDRAKPVTQIVSAEAWGRADCGITSASYHQGVLSATILYEILLGKATLYAVLVSALVLMAMVKRKDSRGRAKRSGSGATNFSLLKQAGDVEENPGPTSMDWIWRILFLVGAATGAHSFEEVQLEESGGGLVQPGGSMKLSCVASGFTFSNYWMNWVRQSPEKGLEWVAEIRFKSHNYATHFAESVKGRFTISRDDSKSSVYLQMNNLRAEDTGIYYCTRRIGNSDYDWWYFDVWGAGTSVTVSSASTREQKLISEEDGSGTPFPSLAPPIMLLVDGKQQMVVVCLVLDVAPPGLDSPIWFSAGNGSALDAFTYGPSPATDGTWTNLAHLSLPSEELASWEPLVCHTGPGAEGHSRSTQPMHLSGEASTARTCPQEPLRGTPGGALWLGVLRLLLFKLLLFDLLLTCSCLCDPAGPLPSPATTTRLRALGSHRLHPATETGGREATSSPRPQPRDRRWGDTPPGRKPGSPVRAKRSGSGVKQTLNFDLLKLAGDVESNPGPSRGHMTEYKPTVRLATRDDVPRAVRTLAAAFADYPATRHTVDPDRHIERVTELQELFLTRVGLDIGKVWVADDGAAVAVWTTPESVEAGAVFAEIGPRMAELSGSRLAAQQQMEGLLAPHRPKEPAWFLATVGVSPDHQGKGLGSAVVLPGVEAAERAGVPAFLETSAPRNLPFYERLGFTVTADVEVPEGPRTWCMTRKPGA
modifications: Polynucleotide encoding a Synthetic Immune Receptor (SIR)
B4: 110116-J04 (protein)
chain: MALPVTALLLPLALLLHAARPLEQKLISEEDLGSGDRPDPAVYQLRDSKSSDKSVCLFTDFDSQTNVSQSKDSDVYITDKCVLDMRSMDFKSNSAVAWSNKSDFACANAFNNSIIPEDTFFPSPESSCDVKLVEKSFETDTNLNFQNLSVIGFRILLLKVAGFNLLMTLRLWSSSSRAKRSGSGVKQTLNFDLLKLAGDVESNPGPTSMALPVTALLLPLALLLHAARPDIQMTQSPASLSASVGETVTIICRASVNIYSYLAWYQQKQGKSPQLLVYNAKILAEGVPSRFSGSGSGTQFSLKINSLQPEDFGSYYCQHHYGTFTFGSGTKLEIKRGGGGSGGGGSGGGGSQVQLKESGPGLVAPSQSLSITCTISGFSLTSYGVHWVRQPPGKGLEWLVVIWSDGSTTYNSALKSRLSISKDNSKSQVFLKMNSLQTDDTAIYYCASHYGSTLAFASWGHGTLVTVSAATRGKPIPNPLLGLDSTGSGEDLKNVFPPEVAVFEPSEAEISHTQKATLVCLATGFYPDHVELSWWVNGKEVHSGVCTDPQPLKEQPALNDSRYCLSSRLRVSATFWQNPRNHFRCQVQFYGLSENDEWTQDRAKPVTQIVSAEAWGRADCGFTSESYQQGVLSATILYEILLGKATLYAVLVSALVLMAMVKRKDSRGRAKRSGSGATNFSLLKQAGDVEENPGPSRGHMTEYKPTVRLATRDDVPRAVRTLAAAFADYPATRHTVDPDRHIERVTELQELFLTRVGLDIGKVWVADDGAAVAVWTTPESVEAGAVFAEIGPRMAELSGSRLAAQQQMEGLLAPHRPKEPAWFLATVGVSPDHQGKGLGSAVVLPGVEAAERAGVPAFLETSAPRNLPFYERLGFTVTADVEVPEGPRTWCMTRKPGA
modifications: Synthetic Immune Receptor (SIR)
B5: 121416-D03 (protein)
chain: MALPVTALLLPLALLLHAARPLEQKLISEEDLGSGDRPDPAVYQLRDSKSSDKSVCLFTDFDSQTNVSQSKDSDVYITDKCVLDMRSMDFKSNSAVAWSNKSDFACANAFNNSIIPEDTFFPSPESSCDVKLVEKSFETDTNLNFQNLSVIGFRILLLKVAGFNLLMTLRLWSSSSRAKRSGSGVKQTLNFDLLKLAGDVESNPGPTSMALPVTALLLPLALLLHAARPDYIHVTQSPSSLSVSIGDRVTINCQTSQGVGSDLHWYQHKPGRAPKLLIHHASSVEDGVPSRFSGTGFHTSFNLTINDLQADDIGTYYCQVLQSFGRGSRLDTKGGGGSGGGGSGGGGSRAHLVQSGTAMKKPGASVRVSCQTSGYTFTAHILFWFRQAPGRGLEWVGWIKPQYGAVNFGGGFRDRVTLTRDVYREIAYMDIRGLKPDDTAVYYCARDRSYGDSSWALDAWGQGTTVVVSATRGKPIPNPLLGLDSTGSGEDLKNVFPPEVAVFEPSEAEISHTQKATLVCLATGFYPDHVELSWWVNGKEVHSGVCTDPQPLKEQPALNDSRYCLSSRLRVSATFWQNPRNHFRCQVQFYGLSENDEWTQDRAKPVTQIVSAEAWGRADCGFTSESYQQGVLSATILYEILLGKATLYAVLVSALVLMAMVKRKDSRGRAKRSGSGATNFSLLKQAGDVEENPGPSRGHMTEYKPTVRLATRDDVPRAVRTLAAAFADYPATRHTVDPDRHIERVTELQELFLTRVGLDIGKVWVADDGAAVAVWTTPESVEAGAVFAEIGPRMAELSGSRLAAQQQMEGLLAPHRPKEPAWFLATVGVSPDHQGKGLGSAVVLPGVEAAERAGVPAFLETSAPRNLPFYERLGFTVTADVEVPEGPRTWCMTRKPGA
modifications: Synthetic Immune Receptor (SIR)
B6: 071417-W08 (protein)
chain: MALPVTALLLPLALLLHAARPLEGKPIPNPLLGLDSTGSGEDLKNVFPPEVAVFEPSKAEIAHTQKATLVCLATGFYPDHVELSWWVNGKEVHSGVCTDPQPLKEQPALNDSRYCLSSRLRVSATFWQNPRNHFRCQVQFYGLSENDEWTQDRAKPVTQIVSAEAWGRADCGITSASYHQGVLSATILYEILLGKATLYAVLVSALVLMAMVKRKDSRGRAKRSGSGATNFSLLKQAGDVEENPGPTSMALPVTALLLPLALLLHAARPDVMLTQTPLSLPVSLGDQASISCRSSQSILHSTGDTYLEWYLQKPGQSPKLLINKVSNRLSGVPDRFSGSGSGTDFTLKISRVEAEDLGVYYCFQGSHVPWTFGGGTKLEIKRADAAPTVSIFPGGGGSGGGGSGGGGSQVKLQQSGPSLVKPGASVKMSCKASGYTFTDFYMKWVKQSHGKSLEWIGDINPNIGDTFYNQKFKGKATLTVDKSSSTAYMQLNSLTSEDSAVYFCSVGYFDVWGAGTTVTVSSTREQKLISEEDGSGIQNPDPAVYQLRDSKSSDKSVCLFTDFDSQTNVSQSKDSDVYITDKCVLDMRSMDFKSNSAVAWSNKSDFACANAFNNSIIPEDTFFPSSDVPCDVKLVEKSFETDTNLNFQNLSVIGFRILLLKVAGFNLLMTLRLWSSRAKRSGSGVKQTLNFDLLKLAGDVESNPGPSRGHMTEYKPTVRLATRDDVPRAVRTLAAAFADYPATRHTVDPDRHIERVTELQELFLTRVGLDIGKVWVADDGAAVAVWTTPESVEAGAVFAEIGPRMAELSGSRLAAQQQMEGLLAPHRPKEPAWFLATVGVSPDHQGKGLGSAVVLPGVEAAERAGVPAFLETSAPRNLPFYERLGFTVTADVEVPEGPRTWCMTRKPGA

Test system: target antigen-expressing cell line
Experiment: Jurkat NFAT-GFP assay, coculture with target cell lines expressing the respective target antigen (summary Table 10A)
Type: cell-based, human
Parameters: key: The signs +/−, +, 2+ etc. after the name of the cell lines indicate the relative degree of positivity on the Jurkat-NFAT-GFP assay as measured by the % GFP positive cells; +: relative degree of positivity on the Jurkat-NFAT-GFP assay as measured by the % GFP positive cells; 2+: relative degree of positivity on the Jurkat-NFAT-GFP assay as measured by the % GFP positive cells
Procedure, shortened: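 Positivity is scored when SIR-expressing reporter Jurkat cells show more GFP-positive cells than parental controls after coculture with the antigen-bearing line. Effector-to-target ratio is about 1:2, coculture lasts roughly 4–18 hours, and GFP is quantified by FACS.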

Molecule	NFAT-GFP ASSAY Positive Cell lines (coculture with NALM6 cells)	NFAT-GFP ASSAY Positive Cell lines (coculture with RAJI cells)	other results
B1			NFAT-GFP ASSAY Positive Cell lines (coculture with U87-MG (U87MG) cells): U87MG
B2	(+)		
B3		RAJI (+/−)	
B4	(2+)	RAJI (2+), NALM6	
B5			NFAT-GFP ASSAY Positive Cell lines (coculture with HL2-3 cells): HL2-3 (+/−),; NFAT-GFP ASSAY Positive Cell lines (coculture with TF228.1.1.6 cells): TF228.1.1.6 (+)
B6			NFAT-GFP ASSAY Positive Cell lines (coculture with U266 cells): U266 (+/−)
